The data set deals with MOP7/human ARNT (transfected) (Mus musculus). Description: cell_activity. Particulars: COS-1 luciferase; enhanced by hypoxia or CoCl2.

On to “HRE reporter (six HRE enhancer elements)”, for which the activity came to 11.7 fold.

These data come from patent US20060084798.
